From patent US20240024426A1, “HYPOTENSIVE PHARMACEUTICAL COMPOSITION COMPRISING TRIPLE ACTIVATOR HAVING ACTIVITY FOR ALL OF GLUCAGON, GLP-1, AND GIP RECEPTORS” (HANMI PHARM. CO., LTD., priority 2020, published 2024)
Bridges are numbered along the chain shown (N, C = ends). Where no end group is shown, it is not given here. [ ]: non-standard residue; d: D form. The star is where a group is joined. Acetyl(2-(4-imidazolyl)) = O=C(Cc1c[nH]cn1)*; Aib = CC(C)(N)C(=O)O

T1: human GIP receptor (human, UniProt P48546 22-466)
T1 sequence (looked up): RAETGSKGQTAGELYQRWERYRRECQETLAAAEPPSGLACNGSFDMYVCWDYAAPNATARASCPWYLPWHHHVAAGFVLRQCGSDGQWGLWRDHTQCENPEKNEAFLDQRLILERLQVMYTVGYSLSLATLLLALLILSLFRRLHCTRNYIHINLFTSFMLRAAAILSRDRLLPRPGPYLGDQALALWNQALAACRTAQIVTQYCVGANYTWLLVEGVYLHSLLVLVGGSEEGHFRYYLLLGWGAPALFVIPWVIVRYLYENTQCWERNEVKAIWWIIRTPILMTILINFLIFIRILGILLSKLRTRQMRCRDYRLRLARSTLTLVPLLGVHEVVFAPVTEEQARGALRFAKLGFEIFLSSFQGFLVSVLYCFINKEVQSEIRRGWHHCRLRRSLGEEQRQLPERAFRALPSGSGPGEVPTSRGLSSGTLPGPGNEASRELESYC


Experiments:
Test in all cases: cell-based or functional assay
human GLP-1 receptor = human GLP-1 receptor (human, UniProt P43220 24-463)
human GCG receptor = human GCG receptor (human, UniProt P47871 26-477)
human GCG receptor, sequence (P47871 26-477): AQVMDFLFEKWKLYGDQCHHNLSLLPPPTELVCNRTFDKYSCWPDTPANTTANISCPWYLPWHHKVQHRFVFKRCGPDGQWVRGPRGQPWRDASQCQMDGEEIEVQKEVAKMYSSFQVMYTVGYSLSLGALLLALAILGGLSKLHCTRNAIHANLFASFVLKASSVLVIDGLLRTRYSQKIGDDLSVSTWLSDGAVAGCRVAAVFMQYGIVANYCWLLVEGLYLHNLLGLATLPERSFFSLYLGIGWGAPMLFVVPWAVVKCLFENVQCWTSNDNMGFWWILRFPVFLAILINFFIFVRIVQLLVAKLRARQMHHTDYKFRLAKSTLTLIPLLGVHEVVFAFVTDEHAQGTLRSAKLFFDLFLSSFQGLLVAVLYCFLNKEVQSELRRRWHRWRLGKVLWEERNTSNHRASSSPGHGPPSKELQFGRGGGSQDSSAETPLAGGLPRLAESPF

human GIP receptor = biological target: T1, human GIP receptor

Binder	In vitro activity compared with native peptide (%) vs. GLP-1 (human GLP-1 receptor) [%]	In vitro activity compared with native peptide (%) vs. Glucagon (human GCG receptor) [%]	In vitro activity compared with native peptide (%) vs. GIP (human GIP receptor) [%]
{Acetyl(2-(4-imidazolyl))}-[Aib]QGTFTSDYSKYLDEKRQKEFVQWLLDTC (bridge 15-19) [Triple agonist of SEQ ID NO: 82]	9.5	1.1	< 0.1
Y[Aib]QGTFTSDYSKYLDEKAAKDFVQWLLDHHPSSGQPPPSC (bridge 16-20) [Triple agonist of SEQ ID NO: 77]	38.7	12.2	35.5
H[Aib]QGTFTSDYSKYLDEKRQKEFVQWLLDTKC (bridge 16-20) [Triple agonist of SEQ ID NO: 78]	51	14	0.12
{Acetyl(2-(4-imidazolyl))}-[Aib]QGTFTSDYSKCLDEKRAKEFVQWLLDHHPSSGQPPPS (bridge 15-19) [Triple agonist of SEQ ID NO: 74]	12.9	0.9	1
{Acetyl(2-(4-imidazolyl))}-[Aib]QGTFTSDYSKYLDECRAKEFVQWLLDHHPSSGQPPPS (bridge 15-19) [Triple agonist of SEQ ID NO: 73]	22.6	5.4	3
Y[Aib]QGTFTSDCSKYLDERAAKDFVQWLLDHHPSSGQPPPS (bridge 16-20) [Triple agonist of SEQ ID NO: 72]	11.5	1	1.6
H[Aib]QGTFTSDVSKYLDGQAAQEFVAWLLKGC [Triple agonist of SEQ ID NO: 8]	14.2	0.1	< 0.1
H[Aib]EGTFTSDYSIAMDEIHQKDFVNWLLAQKC (bridge 16-20) [Triple agonist of SEQ ID NO: 79]	41.5	4.9	1.4
Y[Aib]QGTFTSDYSKYLDEKRAKDFVQWLLDHHPSSGQPPPSC (bridge 16-20) [Triple agonist of SEQ ID NO: 76]	10.3	47.6	11.7
{Acetyl(2-(4-imidazolyl))}-[Aib]QGTFTSDYSKYLDEKRQKEFVQWLLNTC (bridge 15-19) [Triple agonist of SEQ ID NO: 81]	7.8	0.3	< 0.1
Y[Aib]QGTFTSDYSKYLDEKAAKEFVQWLLDHHPSSGQPPPSC (bridge 16-20) [Triple agonist of SEQ ID NO: 75]	35.1	8.5	18
H[Aib]EGTFTSDYSIAMDEIHQKDFVDWLLAEKC (bridge 16-20) [Triple agonist of SEQ ID NO: 80]	8.1	0	0.1
